# B1: Stimulator of interferon genes (STING), endogenous in mouse peritoneal macrophages (natural protein, UniProt Q3TBT3 1-378, looked up)
# chain: MPYSNLHPAIPRPRGHRSKYVALIFLVASLMILWVAKDPPNHTLKYLALHLASHELGLLLKNLCCLAEELCHVQSRYQGSYWKAVRACLGCPIHCMAMILLSSYFYFLQNTADIYLSWMFGLLVLYKSLSMLLGLQSLTPAEVSAVCEEKKLNVAHGLAWSYYIGYLRLILPGLQARIRMFNQLHNNMLSGAGSRRLYILFPLDCGVPDNLSVVDPNIRFRDMLPQQNIDRAGIKNRVYSNSVYEILENGQPAGVCILEYATPLQTLFAMSQDAKAGFSREDRLEQAKLFCRTLEEILEDVPESRNNCRLIVYQEPTDGNSFSLSQEVLRHIRQEEKEEVTMNAPMTSVAPPPSVLSQEPRLLISGMDQPLPLRTDLI
# notes: mouse STING, endogenous; also called TMEM173; MITA; source: endogenous, mouse peritoneal macrophage lysate
# B2: exogenous STING in HEK293T cells (native PAGE, Fig. 3i) (natural protein, UniProt Q3TBT3 1-378, looked up)
# chain: B1 chain
# notes: Probably the same construct as m9 or m10; the text and legend say only 'the indicated plasmids'; source: HEK293T, transfected, in lysate
# What was measured:
# [1] = molecular target: the molecule itself; experiment: native gel or EMSA; native PAGE (7% gel, no SDS, sodium deoxycholate in the cathode buffer) and immunoblot of lysates of mouse peritoneal macrophages after HSV-1, ISD or cGAMP; WT against Zc3hav1^-/- or Zc3hav1 siRNA (dimer and oligomer decreased)
# [2] = molecular target: the molecule itself; experiment: native gel or EMSA; native PAGE and immunoblot of lysates of HEK293T cells transfected with STING with or without ZAPS or ZAPL, stimulated with DMXAA
Protein,stoichiometry N [1],stoichiometry N [2]
B1,2,–
B2,–,2

# From article PMC11526107, “ZC3HAV1 facilitates STING activation and enhances inflammation” (Communications Biology, 2024)
